Measured values from publication PMC13049129.

Molecular target: HnRNPA3-Myc (Homo sapiens) (UniProt P51991)
Test: EMSA
Conditions: RNA-EMSA: 40 mM Tris pH 7.4, 30 mM KCl, 1 mM MgCl2, 0.1% IGEPAL CA-630, 1 mM DTT, 10 ug/ml BSA, 37 C, 30 min; 15% polyacrylamide gel stated to contain 8 M urea.

Chain of HnRNPA3-Myc (Homo sapiens) (P51991 whole entry): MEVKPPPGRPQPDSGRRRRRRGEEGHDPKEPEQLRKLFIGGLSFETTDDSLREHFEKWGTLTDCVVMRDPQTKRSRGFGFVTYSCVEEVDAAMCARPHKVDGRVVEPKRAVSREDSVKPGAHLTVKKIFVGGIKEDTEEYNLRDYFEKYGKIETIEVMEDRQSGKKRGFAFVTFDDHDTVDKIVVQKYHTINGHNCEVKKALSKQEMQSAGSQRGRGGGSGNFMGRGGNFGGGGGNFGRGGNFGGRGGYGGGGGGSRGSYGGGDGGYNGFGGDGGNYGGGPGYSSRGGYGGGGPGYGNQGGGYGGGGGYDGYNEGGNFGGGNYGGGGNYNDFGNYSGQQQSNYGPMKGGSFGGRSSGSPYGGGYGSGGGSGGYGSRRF

## GGGAUGUUAAAGAUGAGCGGGUGGCAGCGACAGAGCCAAAAUCAGAGCUGGAACCUGAGGAGAGAGUGUUCAAGAAGGAAGUGUAUCUUCAUACAUCACCACACCUGAAA [huORFchop RNA (105 nt)]
  binding: binds
